Laboratory results: the nanobody polyreactivity screen of Harvey et al. (2022)

experiment: yeast display, Sf9 membrane polyspecificity reagent, FACS + sequencing; frameworks hold sequencing errors
Outline: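 Nanobodies came from a synthetic yeast display library in Saccharomyces cerevisiae BJ5465, induced with galactose for 36–48 hours and stained for 1 hour at 4 °C with 10% biotinylated, detergent-solubilized Sf9 membrane reagent. Cells were enriched on streptavidin microbeads and then FACS-sorted, with low and high (top ~1%) gates set on anti-HA fluorescence for expression and streptavidin fluorescence for reagent binding. Each polyreactivity label reflects the gate a clone came from. Genes were amplified by colony PCR, sequenced by MiSeq 2 × 250 and filtered by CDR length.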

Q: With “QVQLEESGGGLVQAGGSLRLSCAASGSTFVYYARGWYRQAPGKERELVAAITTRGGSTYYADSVKGRFTISRDNAKNTVYLQMNSLKPEDTAVYYCATKWPVYPTGYDYWGQVTQVTVSS” as the sequence, how does the “polyreactivity (PSR sort gate)” value read?
A: Its value is “low polyreactivity”.

Q: Which “polyreactivity (PSR sort gate)” value does the source give for “QVQLEESGGGLVQAGGSLRLSCAASGSTFYTNAMGWYRQAPGKERELVAAISASVGSTYYADSVKGRFTISRDNAKNTVYLQMNSLKPEDTAVYYCAADVWASRRYDYWGQGTQVTVSS” here?
A: The value was “low polyreactivity”.

Q: Which “polyreactivity (PSR sort gate)” value does the source give for “QVQLEESGGGLVQAGGSLRLSCAASGSTIHDNDMGWYRQAPGKERELVAAISWSGGSTTYADSVKGRFTISRDNAKNTVYLQMNSLKPEDTAVYYCAADWYYWGFIFDYWGQGTQVTVSS” here?
A: The value was “high polyreactivity”.

Q: Which “polyreactivity (PSR sort gate)” value does the source give for “QVQLEESGGGLVQAGGSLRLSCAASGSTIRYNAMGWSRQAPGKERELVAGISVRGGSTYYADSVKGRFTISRDNAKNTVYLQMNSLKPEDTAVYYCATRSPYSYPNLYYWGQGTQVTVSS” here?
A: Its value is “high polyreactivity”.

Q: For “QVQLEESGGGLVQAGGSLRLSCAASGSTISENTMGWYRQAPGKERELVDAISFSGGSTYYADSVKGRFTISRDIAKNTVFLQMNSLKPEDTAVYYCRRFSSSPKLALGEYDFWGQGTQVTVSS”, which “polyreactivity (PSR sort gate)” value is on record?
A: The value was “low polyreactivity”.

Q: For “QVQLEESGGGLVQAGGSLRLSCAASGSTVGIYAMGWYRPAPGKERELVAAISSRGSTYYADSVKGRFTISRDNAKNTVYLQMNSLKPEDTAVYYCAAGYAWYNYWGQGTQVTVSS”, which “polyreactivity (PSR sort gate)” value is on record?
A: The value was “high polyreactivity”.

Q: With “QVQLEESGGGLVQAGGSLRLSCAASGSTVWANAMGWYRPAPGKERELVAAITSTGITYYADSVKGRFTISRDNAKNTVYLQMNSLTPEDTAVYYCAASFPGAGYGMDYWGQGTQVTVSS” as the sequence, how does the “polyreactivity (PSR sort gate)” value read?
A: The value was “low polyreactivity”.

Q: For “QVQLEESGGGLVQAGGSLRLSCAASGTILDSNAIGWYRQAPGKERELVAAITSCGSTYYADSVKGRFTISRDNAKNTVYLQMNSLKPEDTAVYYCAAAYLGYVAVQPSYEVGYWGQGTQVTVSS”, which “polyreactivity (PSR sort gate)” value is on record?
A: Its value is “low polyreactivity”.

Q: Which “polyreactivity (PSR sort gate)” value does the source give for “QVQLEESGGGLVQAGGSLRLSCAASGYTFGTYTMGWYRQAPGKERELVAGIDSGGTTNYADSVKGRFTISRDNAKNTVYLQMNSLKPEDTAVYYCTAYHLLIFDYYLGLYYYRGNYYWGQGTQVTVSS” here?
A: Its value is “low polyreactivity”.

Q: Which “polyreactivity (PSR sort gate)” value does the source give for “QVQLEESGGGLVQAGGSLRLSCAASVSIFESYAKGWNRQAPGKEREFVAAISDSGADTYYADSVKGRFTISRDNAKNTVYLQMNCLKPEDTAVYYCATDDYFSSYGYFLDGYWGQGTQVTVSS” here?
A: The value was “low polyreactivity”.

Q: Which “polyreactivity (PSR sort gate)” value does the source give for “QVQLEESGGGLVQAGGSLRLSCAATASIFDYYAMGWYRQAPGKERELVAAISGTGGSTYYADSVMGRFTISRDNAKNTVYLQMNSLKPEDTAVYYCNAARVIRTALRNDGTFDYWGQGTQVTVSS” here?
A: Its value is “high polyreactivity”.

Q: With “QVQLEESGGGLVQAGGSLRLSCADSGITFYLNAMGWYRQAPGKERELVADITVSGGSTYYADSVKGRFTISRDNAKNTVYLEMNSLKPEDTAVYYCAADMTISYSQEYYFWGQGTQVTVSS” as the sequence, how does the “polyreactivity (PSR sort gate)” value read?
A: Its value is “low polyreactivity”.

Q: Which “polyreactivity (PSR sort gate)” value does the source give for “QVQLEESGGGLVQAGGSLRLSCAPSVIIFPAYDMGWYRQAPGKERELVAAIRTSGTSTYYADSVKGRFTISRDNAKNTVYLEMNSLKPDDTAVYYCGAYQAYGGDYWGQGTQVTVSS” here?
A: The value was “high polyreactivity”.

Q: Which “polyreactivity (PSR sort gate)” value does the source give for “QVQLEESGGGLVQAGGSLRLSCASYGSIFGHYAMGLYRQAPGKARELVAGISKSGGRTYDADSVKGRFTISRDNAKNTVFLQMNSLKPEDTAVYYCNALVTRYQSLDRLGDYWGQGTQVTVSS” here?
A: Its value is “high polyreactivity”.

Q: For “QVQLEESGGGLVQAGGSLRLSCPASGSIFSWNAMGWYRQSPGKERELVATITWNGGRTYYADSVKGRFTISRDNAKNTVYLQMKSLKPEDTAVYYCAARYYVYWTYPNRVLSYYYWGQRTQVTVSS”, which “polyreactivity (PSR sort gate)” value is on record?
A: Its value is “high polyreactivity”.

Q: Which “polyreactivity (PSR sort gate)” value does the source give for “QVQLEESGGGLVQAGGSLRLSFAASISSINAMGWYRQAPGKESELVAAIRCSGSSTYYADSVKGRFTISRDNAMITFYLQMNSVKPEDTAVYYCAADTSTGDRGFDYWGHGTQVTVSS” here?
A: Its value is “high polyreactivity”.

Q: With “QVQLEESGGGLVQAGGSLRLSGAASGRTSDGYAMGWYRQAPGKERELVAGITEGGGDTYYADSVKGRFTMSRDTAKNTVYLQMNSLKPEDPALYYCNAVEGSRLPYDYGGQGTQVTVSS” as the sequence, how does the “polyreactivity (PSR sort gate)” value read?
A: Its value is “low polyreactivity”.

Q: With “QVQLEESGGGLVQAGGSLRLSSAASGTISATYAMGWYRQAPGKERELVAAISRNGGSTYYADSVKGRFTISRDNAKNTVYLQMNSLKPEDTAVYYCATSSSKSMYWGQGTQVTVSS” as the sequence, how does the “polyreactivity (PSR sort gate)” value read?
A: The value was “high polyreactivity”.

Q: Which “polyreactivity (PSR sort gate)” value does the source give for “QVQLEESGGGLVQAGGSLRLTCAACGSIFGPNAMGWYRQAPGKERELVAAIDSSDGSTYYADSVKGRFTISRDNAKNSVYLQMNSLKPEDTAVYYCADELGYIYYSYWWQYDYWGQGTQVTVSS” here?
A: Its value is “high polyreactivity”.

Q: Which “polyreactivity (PSR sort gate)” value does the source give for “QVQLEESGGGLVQAGGSLRLTCAASGFIFDDNAMGWYRQAPGKERELVAAISQGAGRTYYADSVKGRFTISRDNAKNTVYLQMNSLKPEDTAVYYCNSGRPKYWYGSKYDYWGQGTQVTVSS” here?
A: Its value is “low polyreactivity”.

Q: Which “polyreactivity (PSR sort gate)” value does the source give for “QVQLEESGGGLVQAGGSLRLTCAASGSILVYNAMGWYRQAPGKERELVAGISSSGTRTYYADSVKGRFTISRDNAKITFYLQMNSLKPEDTAVYYCNALPVRGHQEYDSWGQGTQVNVSS” here?
A: The value was “high polyreactivity”.

Q: For “QVQLEESGGGLVQAGGSLSLSCAASGSIFSNYAMGWYRQAPGKERELVAAIRISGGSTKYADSVKGRFTISRDNAKNTVYLQMNSLKPEDTAVYYCAAANSKRHRRYNYWGQGTQVTVSS”, which “polyreactivity (PSR sort gate)” value is on record?
A: The value was “high polyreactivity”.

Q: Which “polyreactivity (PSR sort gate)” value does the source give for “QVQLEESGGGLVQAGGSLSVSCAASGSICRNYAMGWYLQAPGKERELVAAISVRGGSTYYADSVKGRFTISRDNAKNTVYLQMHSLKPEDTAGYYCNAVHHDTISDYWGQGTQVTVSS” here?
A: Its value is “high polyreactivity”.

Q: With “QVQLEESGGGLVQAGGTLRLSCAASGGIIVSYAMGWYRPAPRKERELVAAITSGGGTSYADSVKGRFTISRDNAKNTVYLQLNSLKPEDTAVYYCNADGYLAERFVIRLVEFRDYDYWGQGTQVTVSS” as the sequence, how does the “polyreactivity (PSR sort gate)” value read?
A: Its value is “low polyreactivity”.

Q: For “QVQLEESGGGLVQAGGTLRLSCAASVGIFNYYTMGWYREAPGKERELVAAITRGGSTYYADSVKGRFTISRDNAKNTVYLQMNSLKPEDTAVYYCAAVWRRYDKSPLEGSWGQGTQVTLSS”, which “polyreactivity (PSR sort gate)” value is on record?
A: The value was “high polyreactivity”.

Q: With “QVQLEESGGGLVQAGRSLRLSCAASGRIFTYYSMGWYRQAPWKERELVAAISRSGRTYYADSVKGRFTISRDNAKNTVYLQMNILIPEDTAVYYCAAEYYYSWFEYWGQGTQVTVSS” as the sequence, how does the “polyreactivity (PSR sort gate)” value read?
A: Its value is “high polyreactivity”.

Q: With “QVQLEESGGGLVQAGVSLRLSCAASGFTFDRYAMGSYRQAPAKEREMVAALSRSGTSTYYADSVKGRFTISRDNAKYTVYLQMNSLKPEDNAVYYCATRYTVYFPSRLSQYDYWGQGTQVTVSS” as the sequence, how does the “polyreactivity (PSR sort gate)” value read?
A: The value was “high polyreactivity”.

Q: For “QVQLEESGGGLVQAGVSLRLSCAASGSTFGYYAMGWSRQAPGKERELVAAITSGGTTNYADYVKGRFTISRYNEKNTVYLQMYSLKPEDTAVYYCNAVGTFVRYWTDGRDGVTYDFWGQGTQVTVSS”, which “polyreactivity (PSR sort gate)” value is on record?
A: Its value is “low polyreactivity”.

Q: With “QVQLEESGGGLVQEGGSLRLSCSASGRTFRYAMGWYRQAPGKERELVAAISWRGGSTFYADSVKGRFTISRDNAKNTVYLQMNSLKPEDTAVYYCATEFRYHYLSTWSWRYYYWGQGTQVTVSS” as the sequence, how does the “polyreactivity (PSR sort gate)” value read?
A: The value was “low polyreactivity”.

Q: With “QVQLEESGGGLVQPGGSLRLSCAASGTTIGHNAMGLYREAPGKERELVAAISNSGTRTYYADSVKGRFTISRDNAKNTVYLQMNILKPEDTAVYDCAARYYHIYTKYLQGSDYWGQGTQVTVSS” as the sequence, how does the “polyreactivity (PSR sort gate)” value read?
A: Its value is “high polyreactivity”.

Q: For “QVQLEESGGGLVQSGGSLRLSCAASGRTFSGYAMGSYRQAPGKERELVSAISFSGGSTYYADSVKGRFTISRDNAMNTVYLQMNSLIPEDTAVYYCNAYSWYNGIGNYDYWGQGTQVTVSS”, which “polyreactivity (PSR sort gate)” value is on record?
A: Its value is “low polyreactivity”.

Q: Which “polyreactivity (PSR sort gate)” value does the source give for “QVQLEESGGGVVQAGGSLRLSCAASGRTFRWYAMGWYRQAPGKERELVATINSGGTTNYADSVKGRFTISRDNAKNTVYLQMNSLKPEDTAVYYCAATNRGPGHDYWGQGTQVTVSS” here?
A: Its value is “low polyreactivity”.

Q: With “QVQLEESGGGVVQAGGSLRLSCAASGSTFLQYAMGWYRQATGKERELVAAISWRAGSTYYADSVKGRFTISRDTAQNTVYLQMNSLKPEDTAVYYCAADRNGWRYELDDYDYWGQGTQVTVSS” as the sequence, how does the “polyreactivity (PSR sort gate)” value read?
A: The value was “low polyreactivity”.

Q: With “QVQLEESGGRLVQAGGSLRLSCAASGRILRRYTMGWYRQAPGKETELVAAISSGGNTYYADSVKGRFTISRDNAKNTVYLQMNSLKPEDTAVDYCAARVRRYWEYDYWGQGTQVTVSS” as the sequence, how does the “polyreactivity (PSR sort gate)” value read?
A: Its value is “low polyreactivity”.

Q: For “QVQLEESGGRLVQAGGSLRLTSAASGGIFSVYAMGWYRQAPGKERQLVASITVSGGSTSYADSVKGRFTISRDNAKNTVYLQMKSLKPEDTAVYYCAVYQYVGYTMDYWGQGTKVTVSS”, which “polyreactivity (PSR sort gate)” value is on record?
A: The value was “low polyreactivity”.

Q: Which “polyreactivity (PSR sort gate)” value does the source give for “QVQLEESGRGLVQAGGSLRISCAASGRTYTYYALGWYRQAPGKERELVAAISQSGGSTYYADSVKGRFTISRDNAKNTVYLQMNSLKPEDTAVYYCASVWRTRWAPGYYWGQGTQVTVSS” here?
A: The value was “high polyreactivity”.

Q: Which “polyreactivity (PSR sort gate)” value does the source give for “QVQLEESGVGLVQAGGSLRLSCAASGSIFPAYAMGSYRQAPGKERELLAAITFSGGRTYYADSVKGRLTISRDNAKNTFYLQMNSLKPEDTAVYYCAAYGAPSGTGAKYGYWGQGTQVTVSS” here?
A: The value was “low polyreactivity”.

Q: For “QVQLEESGVGVVLAGGSRSLSCAASGRIFQYNAMGWNRQAPGKERELVAAISYRGGSTYYADSVKGRFTISRDNAKYTVYLQLNSLKPEDTAVYYCAVEYPVYYYVEYDYWGQGTQVTVSS”, which “polyreactivity (PSR sort gate)” value is on record?
A: The value was “high polyreactivity”.

Q: For “QVQLEESRGGLVQAGGSLRLSCAASGSIFGYNTMGWYRQAPRKERELVAAISKSGGSTYYADSEKGRFTLSRDTEKNTVYLQMNSLKLEDTAVYYCATYAKQLSPYYYWGQGIQVTVSS”, which “polyreactivity (PSR sort gate)” value is on record?
A: Its value is “high polyreactivity”.

Q: For “QVQLEESRGGLVQAGGSLRLSCAASGSTFVINDMGWYRQAPGKETELVAAISKSGGRTYYADSVKGRFTISRDNATNTVYLQMNSLKPEDTAVYYCAAVSQRTRYGYWGQGTQVTVSS”, which “polyreactivity (PSR sort gate)” value is on record?
A: Its value is “high polyreactivity”.
